Like-named read-outs stand apart in the source and are kept apart here.
How the values were obtained:
VEGF-B [1] = target: T1, VEGF-B (UniProt P49765); assay: ELISA, VEGF-B coated, anti-human Fc-HRP, OD450
T1 sequence (looked up): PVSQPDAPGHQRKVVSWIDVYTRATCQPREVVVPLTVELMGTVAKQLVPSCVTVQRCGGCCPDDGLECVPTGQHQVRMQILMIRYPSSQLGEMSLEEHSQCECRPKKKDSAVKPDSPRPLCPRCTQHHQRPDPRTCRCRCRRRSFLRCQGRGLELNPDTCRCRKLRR

PIGF [2] = target: T2, PIGF (UniProt P49763); assay: ELISA, PlGF coated, anti-human Fc-HRP, OD450
T2 sequence (looked up): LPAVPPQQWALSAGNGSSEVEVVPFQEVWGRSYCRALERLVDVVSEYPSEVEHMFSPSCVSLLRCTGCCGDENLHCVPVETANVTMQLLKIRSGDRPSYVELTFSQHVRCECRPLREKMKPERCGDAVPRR

PIGF [3] = target: T2, PIGF; assay: ELISA, PlGF coated, anti-human Fc-HRP, OD450; remark: listed apart in the source
VEGF-B [4] = target: T1, VEGF-B; assay: ELISA, VEGF-B coated, anti-human Fc-HRP, OD450; remark: listed apart in the source
VEGF-A165 [5] = target: VEGF-A165 (UniProt P15692); assay: blocking ELISA, VEGF-A165 to VEGFR2 (Example 13)
VEGF-A165 [6] = target: VEGF-A165 (UniProt P15692); assay: blocking ELISA, VEGF-A165 to VEGFR1 (Example 13)
VEGF-A165 [7] = target: VEGF-A165 (UniProt P15692); assay: ELISA binding to VEGF-A165, absorbance 450 nm
VEGF-A165 [8] = target: VEGF-A165 (UniProt P15692); assay: blocking ELISA, VEGF-A 165-His to coated VEGFR2-Fc; row head prints uM, paragraph 129 and ng/ml row give nM
PIGF [9] = target: T2, PIGF; assay: ELISA, PlGF coated, anti-human Fc-HRP, OD450; remark: listed apart in the source
VEGF-A165 [10] = target: VEGF-A165 (UniProt P15692); assay: blocking ELISA, VEGF-A 165-His to coated VEGFR2-Fc
VEGF-B [11] = target: T1, VEGF-B; assay: ELISA, VEGF-B coated, anti-human Fc-HRP, OD450; remark: listed apart in the source
VEGF-A165 [12] = target: VEGF-A165 (UniProt P15692); assay: blocking ELISA: His-VEGF-A165 premixed with sample, binding to coated VEGFR2-Fc read with anti-His-HRP
VEGF-A165 [13] = target: VEGF-A165 (UniProt P15692); assay: blocking ELISA, VEGF A165 to VEGFR2 (Example 16)
VEGF-A165 [14] = target: VEGF-A165 (UniProt P15692); assay: blocking ELISA, VEGF A165 to VEGFR1 (Example 16)

Chain of VEGF-A165 (P15692 other isoform, or with tags, fused parts or gaps limits assumed): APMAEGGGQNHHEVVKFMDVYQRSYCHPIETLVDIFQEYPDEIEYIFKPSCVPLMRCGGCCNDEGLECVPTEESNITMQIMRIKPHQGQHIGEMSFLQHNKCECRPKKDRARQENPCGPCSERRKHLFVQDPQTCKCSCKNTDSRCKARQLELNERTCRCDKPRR
Chain of Eylea (Fc fusion) (chain): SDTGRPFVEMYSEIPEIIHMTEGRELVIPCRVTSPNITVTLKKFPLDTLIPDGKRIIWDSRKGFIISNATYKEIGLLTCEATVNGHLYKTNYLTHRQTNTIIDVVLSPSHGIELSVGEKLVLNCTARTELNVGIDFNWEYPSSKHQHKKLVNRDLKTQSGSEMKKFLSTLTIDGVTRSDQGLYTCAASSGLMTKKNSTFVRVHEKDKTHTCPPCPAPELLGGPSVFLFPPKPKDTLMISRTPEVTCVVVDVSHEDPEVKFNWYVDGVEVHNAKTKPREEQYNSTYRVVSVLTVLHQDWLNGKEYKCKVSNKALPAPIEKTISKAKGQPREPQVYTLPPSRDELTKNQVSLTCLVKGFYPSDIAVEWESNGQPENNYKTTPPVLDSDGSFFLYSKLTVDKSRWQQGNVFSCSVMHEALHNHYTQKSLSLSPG

Eylea (Fc fusion)
EC50 (VEGF-B [1]): 1.07 nM
EC50 (PIGF [2]): 0.1 nM
EC50 (PIGF [3]): 0.17 nM
EC50 (VEGF-B [4]): 0.94 nM
EC50 (VEGF-A165 [5]): 2.23 nM
EC50 (VEGF-A165 [6]): 4.64 nM
EC50 (VEGF-A165 [7]): 0.138 nM
EC50 (VEGF-A165 [8]): 3200 nM
EC50 (PIGF [9]): 0.223 nM
EC50 (VEGF-A165 [10]): 0.32 µg/mL
EC50 (VEGF-B [11]): 0.64 nM
EC50 (VEGF-A165 [12]): 1.7 nM
EC50 (VEGF-A165 [13]): 3.94 nM
EC50 (VEGF-A165 [14]): 6.96 nM
